The test concerns the target SARS-CoV-2 RBD (reagent of the GenScript sVNT kit L00847) (SARS-CoV-2), P0DTC2. To be noted: remark: other sources report otherwise.

B1: Nb21 (VHH)
chain: QVQLVESGGGLVQAGGSLRLSCAVSGLGAHRVGWFRRAPGKEREFVAAIGANGGNTNYLDSVKGRFTISRDNAKNTIYLQMNSLKPQDTAVYYCAARDIETAEYTYWGQGTQVTVSS
The molecule B1 showed an Inhibition Rate (%) of 14%.

The record behind these values is patent US20240132577A1.
